Earlier results on 1 substance are cited in US9856460B2, “Nucleic acids encoding synthetic scaffolds and host cells genetically modified with the nucleic acids” (The Regents of the University of California, priority 2008, dated 2018).

pKd: −log10 of the molar value.

The target of the data set is T1, WASP GBD (Rattus norvegicus, UniProt O08816).
T1 construct: 196-274
Conditions: partner WASP GBD; measured in trans.

T1 sequence (O08816 196-274): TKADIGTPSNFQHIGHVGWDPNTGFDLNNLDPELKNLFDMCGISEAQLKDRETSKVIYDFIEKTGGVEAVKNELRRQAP

Regarding “GBD interaction ligand LVGALMHVMQKRSRAIHSSDEGEDQAGDEDED, SEQ ID NO: 30, partner WASP GBD [GBD lig.]”, the pKd (commonly −log10 of the Kd, conventionally taken in molar units) was 6.00.
